From the supplement of paper PMC10724198
± gives the standard deviation of the averaged measurements.

The sequences below were run on Saccharomyces cerevisiae (assay: protein stability index of tFT-peptide fusion (C-terminal peptide) (PSI (0-1 scale)); higher = more stable (slower turnover)). Settings: genetic background: wild type; temperature: 30 C.
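Also: PSI is a weighted mean of sequencing reads over stability bins, variants kept only with over 10 reads, mCherry proximal and sfGFP distal, peptide attached via GGGS linker.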

| Sequence | protein stability index |
| --- | --- |
| LFPAAPAPPPPP | 0.658 ± 0.028 |
| LFPAIWPRVLSW | 0.566 ± 0.02 |
| LFPRCYFARIVV | 0.484 ± 0.033 |
| LFSSQAGGRLES | 0.67 ± 0.019 |
| LFTFEADKCDLT | 0.774 ± 0.092 |
| LFTSCPPDVRSL | 0.667 ± 0.012 |
| LFVAFGAAESFE | 0.67 ± 0.098 |
| LGAPPPLGLSPS | 0.733 ± 0.019 |
| LGASPTWGPARS | 0.656 ± 0.016 |
| LGCVDRMGRVFG | 0.704 ± 0.079 |
| LGEHHKEQEKNV | 0.654 ± 0.023 |
| LGEYNRKKKPRI | 0.6446 ± 0.0034 |
| LGFDRGGGVAGM | 0.674 ± 0.034 |
| LGGERERGRKRG | 0.672 ± 0.048 |
| LGGGEGKRVCEG | 0.668 ± 0.017 |
| LGGGGVGVGSLV | 0.679 ± 0.014 |
| LGGGGWGGACGE | 0.66 ± 0.02 |
| LGGGNVGHSRIW | 0.623 ± 0.073 |
| LGGICPLYDLVF | 0.667 ± 0.076 |
| LGGLKCGRLADS | 0.656 ± 0.041 |
| LGGLRRGSGREG | 0.678 ± 0.015 |
| LGGLYGTAMSCT | 0.683 ± 0.023 |
| LGGRWVLGVRGV | 0.694 ± 0.029 |
| LGGSNRPCVRSI | 0.697 ± 0.011 |
| LGGSVAIWSWNP | 0.763 ± 0.12 |
| LGGWAGLRCGGF | 0.704 ± 0.026 |

| Sequence | protein stability index |
| --- | --- |
| LGILVFRGASFL | 0.7351 ± 0.007 |
| LGLCQVLFSFRV | 0.56816 ± 0.00044 |
| LGLEALRETSQP | 0.6448 ± 0.005 |
| LGLSDPERLFVI | 0.664 ± 0.025 |
| LGMEPPWIYSCQ | 0.6851 ± 0.0019 |
| LGRGGGGPLSGG | 0.717 ± 0.041 |
| LGRLFPTSLPPR | 0.739 ± 0.17 |
| LGRLGAFITQPA | 0.671 ± 0.059 |
| LGRMCSRITVGV | 0.543 ± 0.026 |
| LGRPLLYALFFP | 0.724 ± 0.048 |
| LGRRGLSMCGCV | 0.634 ± 0.018 |
| LGRVLSFGHAFV | 0.698 ± 0.021 |
| LGSASRQLARPR | 0.66 ± 0.12 |
| LGSVVADGPHKL | 0.625 ± 0.0097 |
| LGVAMSKCLEFR | 0.684 ± 0.0083 |
| LGVFVAFGGFGV | 0.605 ± 0.048 |
| LGVGGRGVVPGA | 0.7 ± 0.031 |
| LGWGWVWSWGRG | 0.728 ± 0.052 |
| LHISYPVPPLRM | 0.633 ± 0.11 |
| LHNQTLLLSEDD | 0.652 ± 0.037 |
| LIALLETRTWRT | 0.676 ± 0.015 |
| LIAVASSGWKQS | 0.7145 ± 0.0023 |
| LICQNPVADPRT | 0.711 ± 0.042 |
| LIFKLQLPSPWL | 0.643 ± 0.042 |
| LIHGRFWVIRVD | 0.616 ± 0.0092 |
| LIKSEECKNTDI | 0.704 ± 0.033 |

| Sequence | protein stability index |
| --- | --- |
| LILLLTPPVIHH | 0.743 ± 0.051 |
| LIRLLPPPPAVF | 0.487 ± 0.068 |
| LISHHSEFPVIL | 0.744 ± 0.031 |
| LISNIFSFEWLW | 0.622 ± 0.032 |
| LKDITVWRPKRG | 0.658 ± 0.12 |
| LKHHDSNESASR | 0.651 ± 0.1 |
| LKKMIGPLRAGE | 0.686 ± 0.076 |
| LKLHDSNESASR | 0.651 ± 0.03 |
| LKLTFFCRQNIF | 0.574 ± 0.0098 |
| LKNIRYGIIKKE | 0.68 ± 0.0085 |
| LKRKKKHQMKRR | 0.699 ± 0.028 |
| LKSGRYSYFGSL | 0.734 ± 0.086 |
| LLAAVSPSHRAL | 0.724 ± 0.021 |
| LLAPSPPPPLPP | 0.61 ± 0.13 |
| LLAYFCRRGVRH | 0.7232 ± 0.0071 |
| LLCSLRPLAVPP | 0.602 ± 0.039 |
| LLDLCSNLLRSF | 0.757 ± 0.11 |
| LLEKGHTRGLCF | 0.663 ± 0.017 |
| LLFCMGSCGPVR | 0.624 ± 0.027 |
| LLFVVSLPSFPC | 0.636 ± 0.13 |
| LLGFRLACTSGA | 0.648 ± 0.0079 |
| LLGRWVAGSRGG | 0.746 ± 0.017 |
| LLHAGVCSVSFL | 0.718 ± 0.038 |
| LLLPPAPPPPLS | 0.621 ± 0.095 |
| LLLVGGVSSWTV | 0.67 ± 0.014 |
| LLLVRNCQDSRQ | 0.69 ± 0.057 |

| Sequence | protein stability index |
| --- | --- |
| LLPFLPPPPCPP | 0.72 ± 0.022 |
| LLPFTLHIPLRP | 0.6523 ± 0.0022 |
| LLPGLVGMLSCM | 0.602 ± 0.039 |
| LLPGPYPLLSDN | 0.732 ± 0.025 |
| LLPLAPVCVIIL | 0.54 ± 0.041 |
| LLPLPCPPFPHS | 0.674 ± 0.024 |
| LLPPPHHANHTA | 0.6915 ± 0.0027 |
| LLPRLRHPSRGK | 0.73 ± 0.15 |
| LLPSPISRNRAL | 0.696 ± 0.0081 |
| LLPSPLHGCTMS | 0.676 ± 0.01 |
| LLPSPPPPTSLP | 0.728 ± 0.033 |
| LLPVLGFPLPFD | 0.75 ± 0.065 |
| LLRVLPPPPLPL | 0.712 ± 0.11 |
| LLRVTVCELAYK | 0.55 ± 0.018 |
| LLSFLPPVFLLL | 0.514 ± 0.014 |
| LLSGPTLSCVPT | 0.617 ± 0.043 |
| LLSLHPRYPCTP | 0.76 ± 0.047 |
| LLSLLPFGCLLL | 0.536 ± 0.031 |
| LLSRLLLAPSSL | 0.65 ± 0.019 |
| LLSSATPSKFPS | 0.836 ± 0.021 |
| LLSTPPIVSPPA | 0.6987 ± 0.0031 |
| LLSVPCPLVCRL | 0.699 ± 0.037 |
| LLSYLRNCCAEH | 0.687 ± 0.035 |
